# Source: article PMC12017984
# Tests used:
# [1] = biological target: Recombinant His-tagged human apolipoprotein A-IV, apoA-IV^T347S (human) (UniProt P06727); assay: BLI
# [2] = biological target: Recombinant human apolipoprotein A-IV, apoA-IV^T347S, His tag-free (human) (UniProt P06727); assay: ITC
# [3] = biological target: Recombinant human apolipoprotein A-IV, apoA-IV^WT, His tag-free (human) (UniProt P06727); assay: ITC
substance,measurement,setting,value
Human platelet integrin αIIbβ3 (from UniProt P05106 27-788) (receptor),Kd,[1],0.397 µM
"Recombinant human apolipoprotein A-IV, apoA-IV^T347S, His tag-free (from UniProt P06727 21-396) (natural protein)",Kd,[2],102 µM
same,dH,[2],-34 kcal/mol
"Recombinant human apolipoprotein A-IV, apoA-IV^WT, His tag-free (from UniProt P06727 21-396) (natural protein)",Kd1,[3],0.63 µM
same,Kd2,[3],54 nM
same,dH1,[3],2.7 kcal/mol
same,dH2,[3],-27 kcal/mol
